Results reported in PMC4663164 (The Biochemical journal, 2015).

Assays:
[1] = target: HMR-1^S1212E (polyhistidine-tagged HMR-1^1108–1223) (C. elegans); experiment: liposome co-flotation
[2] = target: HMR-1^S1212E,T1215E,S1218E (polyhistidine-tagged HMR-1^1108–1223) (C. elegans); experiment: liposome co-flotation
[3] = target: CK1-phosphorylated HMR-1^1108–1223 (polyhistidine-tagged) (C. elegans); experiment: liposome co-flotation
[4] = target: HMR-1^T1215E,S1218E (polyhistidine-tagged HMR-1^1108–1223) (C. elegans); experiment: liposome co-flotation
SEC-MALS = target: the molecule itself; experiment: SEC-MALS

## HMP-1/HMP-2 complex (untagged, purified) (from UniProt P90947 1-927; O44326 1-678)
[1]
  fold increase in HMP-1/HMP-2 recovery against unmodified HMR-1^1108–1223: 1.8 fold
[2]
  fold increase in HMP-1/HMP-2 association against unmodified HMR-1^1108–1223: 2.2 fold
[3]
  fold enhancement in HMP-1/HMP-2 recovery against unphosphorylated HMR-1: 6 fold
[4]
  fold increase in HMP-1/HMP-2 binding against unmodified HMR-1^1108–1223: 1.4 fold

B1: recombinant full-length HMP-2 (natural protein, C. elegans, UniProt O44326 1-678, looked up)
chain: MLLHSTNSYSIFTDHEVETRTSRIRSAMFPDWIPPTSAAEATNSTTSIVEMMQMPTQQLKQSVMDLLTYEGSNDMSGLSLPDLVKLMCDHDESVVARAVHRAYMLSREDPNFFNAPGFDHRSFVEALMAASKSSNVNVRRNAIGALSHMSEQRGGPLLIFRSGGLAEIIRMLYDSLESVVHYAVTTLRNLLMHVSDSRAQARALNAVEALTPHLHKTNPKLLAQVADGLYFLLIDDAPSKITFLSLLGPQILVSILREYSDHRKLIYTVVRCIRSLSVCPSNKPALISLGCLPALYVELCTAKDERSQTAILVAMRNLSDSATNEENLTQLIIKLLEIIRVANDGMTACACGTLSNLTCNNTRNKQTVCSHGGIDALVTAIRRLPEVEEVTEPALCALRHCTARHSLAEEAQSELRFCQAFPVILDQLETLRTPVIKAALGVIRNSALLQTNLIELTQEQTANGHTAVSLTMDILRRAITAIEENPDIAVDGVPMWGVIEGAVSALHQLANHPAVAAACCDDIGQVGNPECPPFLDLLHRLLAHPRLGSMDDEVLEREILGLLYQLSKRPDGARAVESTGVSALLMESRGSQYKSVVTYANGVLSNLKRGDSAAIMNMSNSYDYEMSGSAADWQRDGLERELFAEMYPTNDGGHSESINMALNNSQMRPNHNWYDTDL
SEC-MALS
  stoichiometry N: 2
